doi:10.1101/2023.06.06.543969 (bioRxiv, 2023)

Molecular target: biotinylated SARS-CoV-2 fusion peptide (Severe acute respiratory syndrome …, biotin on the N-terminus)
Assay: BLI
Details: both partners purified

B1: COV44–62 Fab VH R50W (Fab, V domains shown)
VH: QMQLMQSGAEVKKPGASVTVSCKASGDTFSDYRIHWVRQAPGQGLEWMGWMNPKSGDTNFAQKFQGRVTMTRDMSINTAYMTLSGLTFDDTALYYCASLLIVGGFDPLDDFEVWGQGTMVTISS
VL: QSALTQPPSASGSPGQSVTISCSGTSSDVGGYNFVSWYQHHPGKAPKILIYEVTKRPSGVPDRFSGSKSGNTASLTVSGLQAEDEADYYCSSYGGTNNLLFGGGTKLTVL
binding result: no binding (tested: 300 nM)
